Seven molecules from patent US9695461B2, “Method for adapting a hydrolytic enzyme to a component that stabilizes the hydrolytic enzyme” (Henkel AG & Co. KGaA, priority 2011, dated 2017) can be followed below.

The subject of this series is protease according to SEQ ID NO: 3. Put plainly: Relative proteolytic activity with reversible inhibitor in liquid surfactant preparation (Example 1). The class given is biochemical. The conditions noted are these: 50% conc. surfactant preparation, 0.92 mM AAPF, 25° C., pH 8.6, relative to same protease without inhibitor; for relative activity, 3-HPBA: 3-HPBA in amount inhibiting starting enzyme by 20-40%; for relative activity, 4-FPBA: 4-FPBA in amount inhibiting starting enzyme by 20-40%; for relative activity, Boric acid: boric acid in amount inhibiting starting enzyme by 20-40%; for relative activity, BMA: benzylmalonic acid in amount inhibiting starting enzyme by 20-40%. From the text: The relative activity to be determined in process step c) of the hydrolytic enzyme modified in process step b) is given by [measured activity of the hydrolytic enzyme modified in process step b) in the presence of the component that stabilizes the hydrolytic enzyme] divided by [measured activity of the hydrolytic enzyme modified in process step b) in the absence of the component that stabilizes the hydrolytic enzyme] multiplied by 100.
The relative activity of the starting enzyme to be determined in process step c) is given by [measured activity of the starting enzyme in the presence of the component that stabilizes the hydrolytic enzyme] divided by [measured activity of the starting enzyme in the absence of the component that stabilizes the hydrolytic enzyme] multiplied by 100.
The nucleic acid sequence of the hydrolytic enzyme present on a plasmid was modified individually or in combination as indicated in Tables 1 and 2 using site directed mutagenesis by means of specific, adapted primers using a Phusion Hot Start Polymerase at the positions S166, A187, F189 or Q191 in the counting according to SEQ ID NO: 1, and the resulting variants were transformed into a suitable host. Active clones were selected by means of a protease-sensitive medium and the DNA sequence was sequenced after isolation of the plasmid for identification purposes. The modified proteases were expressed in the Bacillus host and prepared for the activity determination.
The activity was determined in a liquid preparation that was constituted as follows (all data in wt %): 0.3-0.5% xanthan, 0.2-0.4% defoamer, 6-7% glycerin, 0.3-0.5% ethanol, 4-7% FAEOS (fatty alcohol ether sulfate), 24-28% non-ionic surfactants, 1-2% sodium citrate (dihydrate), 2-4% soda, 14-16% cocoanut fatty acids, 0.5% HEDP (1-hydroxyethane-(1,1-diphosphonic acid)), 0-0.4% PVP (polyvinyl pyrrolidone) 0-0.5% optical brightener, 0-0.001% % colorant, the remainder being demineralized water.
To a 50% conc. liquid preparation of the liquid surfactant preparation were added 0.92 mM AAPF. The reversible inhibitor to be tested was also comprised in the required amount to inhibit the starting enzyme by 20-40%. 20 μl of the respective protease (starting enzyme as well as modified protease variants) were added and the proteolytic activity determined from the release of the chromophore para-nitroaniline (pNA) from the substrate suc-L-Ala-L-Ala-L-Pro-L-Phe-p-nitroanilide (suc-AAPF-pNA). The protease cleaves the substrate and releases pNA. The released pNA causes the extinction at 410 nm to increase; the change in extinction as a function of time is a measure of the enzymatic activity (see Del Mar et al., 1979). The measurement was carried out at a temperature of 25° C., at pH 8.6 and a wavelength of 410 nm.
The measured activity was compared with the activity of a reference formulation of the same protease sample without inhibitor and the respective relative activities of the modified proteases and the starting enzyme were determined. […] The results are presented in the following Tables 1 and 2 (the relative activities are each given).

B1: S166A: protease of SEQ ID NO: 3 with amino acid substitution S166A in the count according to SEQ ID NO: 1 (protein, listed as Bacillus lentus)
chain: AQSVPWGISRVQAPAAHNRGLTGSGVKVAVLDTGISTHPDLNIRGGASFVPGEPSTQDGNGHGTHVAGTIAALNNSIGVLGVAPSAELYAVKVLGADGEGAISSIAQGLEWAGNNGMHVANLSLGSPSPSATLEQAVNSATSRGVLVVAASGNSGASSIAYPARYANAMAVGATDQNNNRASFSQYGAGLDIVAPGVNVQSTYPGSTYASLNGTSMATPHVAGAAALVKQKNPSWSNVQIRNHLKNTATSLGSTNLYGSGLVNAEAATR
B1: for the setting “Table 1”, the “relative activity, 3-HPBA” value is 83%; the “relative activity, 4-FPBA” value is listed as 61%; the “relative activity, Boric acid” value is listed as 76%.

B2: F189R: protease of SEQ ID NO: 3 with amino acid substitution F189R in the count according to SEQ ID NO: 1 (protein, listed as Bacillus lentus)
chain: AQSVPWGISRVQAPAAHNRGLTGSGVKVAVLDTGISTHPDLNIRGGASFVPGEPSTQDGNGHGTHVAGTIAALNNSIGVLGVAPSAELYAVKVLGADGEGAISSIAQGLEWAGNNGMHVANLSLGSPSPSATLEQAVNSATSRGVLVVAASGNSGASSISYPARYANAMAVGATDQNNNRASRSQYGAGLDIVAPGVNVQSTYPGSTYASLNGTSMATPHVAGAAALVKQKNPSWSNVQIRNHLKNTATSLGSTNLYGSGLVNAEAATR
B2: where the note is “Table 2”, the “relative activity, BMA” value is 80% and the “relative activity, Boric acid” value is listed as 53%.

B3: S166Y: protease of SEQ ID NO: 3 with amino acid substitution S166Y in the count according to SEQ ID NO: 1 (protein, listed as Bacillus lentus)
chain: AQSVPWGISRVQAPAAHNRGLTGSGVKVAVLDTGISTHPDLNIRGGASFVPGEPSTQDGNGHGTHVAGTIAALNNSIGVLGVAPSAELYAVKVLGADGEGAISSIAQGLEWAGNNGMHVANLSLGSPSPSATLEQAVNSATSRGVLVVAASGNSGASSIYYPARYANAMAVGATDQNNNRASFSQYGAGLDIVAPGVNVQSTYPGSTYASLNGTSMATPHVAGAAALVKQKNPSWSNVQIRNHLKNTATSLGSTNLYGSGLVNAEAATR
For the molecule B3, under “Table 1”, the “relative activity, 3-HPBA” value is 58%; the “relative activity, 4-FPBA” value was 100%; the “relative activity, Boric acid” value is given as 68%.

B4: A187D/F189R: protease of SEQ ID NO: 3 with amino acid substitutions A187D and F189R in the count according to SEQ ID NO: 1 (protein, listed as Bacillus lentus)
chain: AQSVPWGISRVQAPAAHNRGLTGSGVKVAVLDTGISTHPDLNIRGGASFVPGEPSTQDGNGHGTHVAGTIAALNNSIGVLGVAPSAELYAVKVLGADGEGAISSIAQGLEWAGNNGMHVANLSLGSPSPSATLEQAVNSATSRGVLVVAASGNSGASSISYPARYANAMAVGATDQNNNRDSRSQYGAGLDIVAPGVNVQSTYPGSTYASLNGTSMATPHVAGAAALVKQKNPSWSNVQIRNHLKNTATSLGSTNLYGSGLVNAEAATR
With B4, where the note is “Table 2”, the “relative activity, BMA” value amounted to 43% and the “relative activity, Boric acid” value turned out to be 37%.

B5: A187D: protease of SEQ ID NO: 3 with amino acid substitution A187D in the count according to SEQ ID NO: 1 (protein, listed as Bacillus lentus)
chain: AQSVPWGISRVQAPAAHNRGLTGSGVKVAVLDTGISTHPDLNIRGGASFVPGEPSTQDGNGHGTHVAGTIAALNNSIGVLGVAPSAELYAVKVLGADGEGAISSIAQGLEWAGNNGMHVANLSLGSPSPSATLEQAVNSATSRGVLVVAASGNSGASSISYPARYANAMAVGATDQNNNRDSFSQYGAGLDIVAPGVNVQSTYPGSTYASLNGTSMATPHVAGAAALVKQKNPSWSNVQIRNHLKNTATSLGSTNLYGSGLVNAEAATR
B5: for the setting “Table 2”, the “relative activity, BMA” value is 79% and the “relative activity, Boric acid” value was 47%.

B6: Q191R: protease of SEQ ID NO: 3 with amino acid substitution Q191R in the count according to SEQ ID NO: 1 (protein, listed as Bacillus lentus)
chain: AQSVPWGISRVQAPAAHNRGLTGSGVKVAVLDTGISTHPDLNIRGGASFVPGEPSTQDGNGHGTHVAGTIAALNNSIGVLGVAPSAELYAVKVLGADGEGAISSIAQGLEWAGNNGMHVANLSLGSPSPSATLEQAVNSATSRGVLVVAASGNSGASSISYPARYANAMAVGATDQNNNRASFSRYGAGLDIVAPGVNVQSTYPGSTYASLNGTSMATPHVAGAAALVKQKNPSWSNVQIRNHLKNTATSLGSTNLYGSGLVNAEAATR
For B6, under “Table 2”, the “relative activity, BMA” value was found to be 63% and the “relative activity, Boric acid” value is 76%.

B7: S166G: protease of SEQ ID NO: 3 with amino acid substitution S166G in the count according to SEQ ID NO: 1 (protein, listed as Bacillus lentus)
chain: AQSVPWGISRVQAPAAHNRGLTGSGVKVAVLDTGISTHPDLNIRGGASFVPGEPSTQDGNGHGTHVAGTIAALNNSIGVLGVAPSAELYAVKVLGADGEGAISSIAQGLEWAGNNGMHVANLSLGSPSPSATLEQAVNSATSRGVLVVAASGNSGASSIGYPARYANAMAVGATDQNNNRASFSQYGAGLDIVAPGVNVQSTYPGSTYASLNGTSMATPHVAGAAALVKQKNPSWSNVQIRNHLKNTATSLGSTNLYGSGLVNAEAATR
B7: where the note is “Table 2”, the “relative activity, BMA” value is 80% and the “relative activity, Boric acid” value is reported as 65%.
